± gives the uncertainty stated by the source.
Assay: protein stability index of a GFP-peptide fusion (yeast GPS) (PSI 1-4); higher = more stable; sorted into four equal gates, so the index is relative within each strain
How it was run: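 Tiled 17-residue yeast protein peptides were fused downstream of GFP in a plasmid that also expresses Cherry, and the pooled library was carried in yeast. Mid-log cultures in leucine-free medium were sorted into four equal gates by GFP/Cherry fluorescence ratio, and plasmids from each gate were PCR-amplified and Illumina-sequenced, with reads assigned to strains by barcodes. The protein stability index for each peptide was each gate's read frequency times its gate number, summed.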

| Sequence | protein stability index (doa10∆) | protein stability index (pdr5∆) | protein stability index (san1∆) | protein stability index (ubr1∆) |
| --- | --- | --- | --- | --- |
| ENELFNDRKQTTVSNDL [SSN2] | 2.74 ± 0.16 | 3.14 ± 0.079 | 3.11 ± 0.06 | 3.02 ± 0.081 |
| YESIATYASVTGLFTLE [RPN7] | – | – | – | 1.96 ± 0.29 |
| ARYVIATSTKVSVEGVN [RPL6A] | 1.62 ± 0.051 | 1.52 ± 0.048 | 1.47 ± 0.11 | 1.27 ± 0.034 |
| GTIKKIEQFAMRRNSKI [POP5] | 2.79 ± 0.065 | 2.73 ± 0.05 | 2.6 ± 0.059 | 2.69 ± 0.039 |
| PLPVETPRDRRKSVFAP [SSN2] | 2.67 ± 0.069 | 2.31 ± 0.077 | 2.99 ± 0.099 | 2.86 ± 0.049 |
| NNPLLLIVDVKQQGVGL [RPN8] | 1.27 ± 0.14 | 1.87 ± 0.1 | 1.87 ± 0.15 | 2.15 ± 0.1 |
| AMNDKDLTMGQVGERIK [RPO21] | 3.31 ± 0.17 | 3.26 ± 0.14 | 2.82 ± 0.13 | 3.08 ± 0.099 |
| GKIVSQRGKWNLKYLDN [RGR1] | 2.28 ± 0.074 | 2.64 ± 0.068 | 2.37 ± 0.091 | 2.17 ± 0.06 |
| EIKLLEISCKQWEISNM [CSI1] | – | 3.44 ± 0.27 | – | 3.55 ± 0.23 |
| TGAGKGSIGAEVLQGLL [FAS2] | 3.48 ± 0.088 | 3.56 ± 0.063 | 3.47 ± 0.066 | 2.96 ± 0.067 |
| TGIFMAMHYSSNIELAF [COB] | 1.3 ± 0.065 | 1.51 ± 0.063 | 1.24 ± 0.12 | 1.5 ± 0.078 |
| NLQIRQLFNWCLMRSLH [DSN1] | 1.26 ± 0.092 | 1.19 ± 0.061 | 1.04 ± 0.17 | 1.12 ± 0.13 |
| MAESHRLYVKGKHLSYQ [RPL33A] | 2.71 ± 0.077 | 2.84 ± 0.068 | 2.52 ± 0.073 | 2.62 ± 0.058 |
| IPAAGNNRSVSMQTIAE [SRB5] | 3.09 ± 0.078 | 3.12 ± 0.087 | 3.22 ± 0.081 | 3.3 ± 0.07 |
| RAQEEVKRIQSVPLVIG [RPT3] | 3.52 ± 0.13 | 3.16 ± 0.15 | 3.04 ± 0.11 | 3.21 ± 0.066 |
| FAQENSELAVATTSVMM [SRB6] | 2.82 ± 0.13 | 3.13 ± 0.14 | 3.13 ± 0.07 | 3.33 ± 0.11 |
| CIIAVSCTLLERGHPKD [POP1] | 1.46 ± 0.022 | 1.52 ± 0.029 | 1.81 ± 0.036 | 1.96 ± 0.027 |
| KQFVVDVLHPNRANVSK [RPS24A] | 2.94 ± 0.073 | 3.24 ± 0.082 | 2.96 ± 0.079 | 3.07 ± 0.05 |
| SQRAQVVTMSVKSVNDP [RPC37] | 2.17 ± 0.073 | 2.4 ± 0.11 | 1.89 ± 0.08 | 1.97 ± 0.1 |
| LEGETDPLRIAMKELAE [RPO26] | 3.49 ± 0.21 | 3.34 ± 0.057 | 3.27 ± 0.1 | 3.36 ± 0.15 |
| PLQVARCTKIIKGNGES [RPT1] | 2.96 ± 0.16 | 2.96 ± 0.081 | 2.72 ± 0.09 | 2.01 ± 0.14 |
| SHKTTKEDTVSWFKQKY [RPL11A] | 1.8 ± 0.064 | 1.56 ± 0.054 | 1.36 ± 0.12 | 1.53 ± 0.064 |
| VHESLVTQSNILSQQFD [SRB8] | 2.71 ± 0.07 | 3.09 ± 0.071 | 2.78 ± 0.054 | 3.02 ± 0.052 |
| AKRAQFRKKRKFELGRQ [RPS8A] | 3.24 ± 0.08 | 3.28 ± 0.077 | 3.31 ± 0.066 | 3.02 ± 0.081 |
| TEELSITGEKLDTQLND [SMC1] | 1.86 ± 0.068 | 2.41 ± 0.083 | 2.29 ± 0.12 | 1.36 ± 0.034 |
| LKVRKGHIAKLMATEYQ [RPB2] | 2.52 ± 0.14 | 2.33 ± 0.13 | 1.28 ± 0.19 | 1.86 ± 0.057 |
| SQAFDIVAALPISEKGL [RPP1] | 2.85 ± 0.18 | 3.02 ± 0.2 | 2.66 ± 0.18 | 2.66 ± 0.15 |

— the supplement of paper PMC9732359
